The values that follow come from PMC5707625 (Biochemistry, 2017).

In data set [1] the target is T1, BlaC (Mycobacterium tuberculosis, UniProt P9WKD3). The data set can be described thus: […] Å crystal structure. Type of data set: binding.
The target in data set [2] is T1, BlaC. The data set can be described thus: biochemical. Type of data set: binding.
For data set [3], the system named is O=C(Cc1cccs1)N[C@@H]1C(=O)N2C(C(=O)O)=C(/C=C/c3ccc([N+](=O)[O-])cc3[N+](=O)[O-])CS[C@H]12. The experiment in a line: purified protein. The following applies: pH 6.0.

T1 sequence (P9WKD3 43-307 limits assumed): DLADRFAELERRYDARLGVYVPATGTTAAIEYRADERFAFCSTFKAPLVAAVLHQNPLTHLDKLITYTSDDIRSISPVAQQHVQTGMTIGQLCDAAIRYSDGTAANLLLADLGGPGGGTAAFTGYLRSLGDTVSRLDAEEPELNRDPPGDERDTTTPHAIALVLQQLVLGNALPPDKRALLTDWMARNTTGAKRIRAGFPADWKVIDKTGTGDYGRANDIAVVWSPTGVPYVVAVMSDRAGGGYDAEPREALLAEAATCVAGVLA

For the molecule `CC(=O)O` [acetate], the “2.1 Å crystal structure” value at BlaC [1] is “acetate occupies the carboxylate binding site and forms hydrogen bridges with residues Ser-130, Thr-235, and Thr-237”.
Consider `O=P(O)(O)O` [phosphate], for which the affinity on BlaC [2], expressed as Kd, was 27 ± 11 mM.
Take BlaC (Mycobacterium tuberculosis H37Rv): in data set [3], the Km – broadly, the substrate concentration at which the rate is half of its maximum – was 38 ± 7 µM; the kcat (usually the number of substrate molecules converted per active site and unit of time at saturation) worked out at 69 ± 1 s⁻¹; the kcat/Km – broadly, the second-order rate constant that governs catalysis at low substrate concentration – amounted to 1.8e+06 ± 300000 M⁻¹ s⁻¹.
